Assay results as given in patent publication US20040176301A1 (CYCLACEL, published 2004).
Ends that are not written are not given here.

Each binder was assayed against CDK2/Cyclin E complex (UniProt P24941 1-298; P24864 1-410) (assay: cell-based or functional assay).
For % Inhibition, cyclin D1/CDK4 kinase in this document: test concentration or dose not given here.
For % Inhibition, cyclin E/CDK2 kinase in this document: test concentration or dose not given here.

Binder	% Inhibition, cyclin E/CDK2 kinase	IC50, cyclin E/CDK2 kinase, GST-pRb
FYHSKRR-NH2 [FYHSKRR-NH2]	45%	> 200 µM
FYHSKRRLI-NH2 [FYHSKRRLI-NH2]	45%	–
HSKRRL-NH2 [HSKRRL-NH2]	45%	> 200 µM
H-KRRLIF-NH2 [H-Lys-Arg-Arg-Leu-Ile-Phe-NH2]	80%	1.1 µM
DFYHSKR-NH2 [DFYHSKR-NH2]	50%	200 µM
FYHSKR-NH2 [FYHSKR-NH2]	20%	–
FYHSKRRL-NH2 [FYHSKRRL-NH2]	48%	> 200 µM

Other lines, results leading:

% Inhibition, cyclin E/CDK2 kinase	IC50, cyclin E/CDK2 kinase, GST-pRb	Binder
80%	7 µM	YHSKRRLIF-NH2 [p21 (151-159) YHSKRRLIF-NH2]
35%	–	TSMTDFYHSKRR-NH2 [TSMTDFYHSKRR-NH2]
35%	–	HSKRRLI-NH2 [HSKRRLI-NH2]
40%	–	YHSKRR-NH2 [YHSKRR-NH2]
30%	> 200 µM	YHSKRRL-NH2 [YHSKRRL-NH2]
85%	2.2 µM	TDFYHSKRRLIF-NH2 [p21 (148-159) TDFYHSKRRLIF-NH2]
80%	7.7 µM	SKRRLIF-NH2 [SKRRLIF-NH2]
45%	> 200 µM	YHSKRRLI-NH2 [YHSKRRLI-NH2]
80%	–	FYHSKRRLIF-NH2 [p21 (150-159) FYHSKRRLIF-NH2]
25%	–	YHSKR-NH2 [YHSKR-NH2]

The binders below were run against CDK4/Cyclin D1 complex (UniProt P11802 1-303; P24385 1-295) (assay: cell-based or functional assay).
CDK4/Cyclin D1 complex, sequence (P11802 other isoform, or with tags, fused parts or gaps, chain 1 of 2): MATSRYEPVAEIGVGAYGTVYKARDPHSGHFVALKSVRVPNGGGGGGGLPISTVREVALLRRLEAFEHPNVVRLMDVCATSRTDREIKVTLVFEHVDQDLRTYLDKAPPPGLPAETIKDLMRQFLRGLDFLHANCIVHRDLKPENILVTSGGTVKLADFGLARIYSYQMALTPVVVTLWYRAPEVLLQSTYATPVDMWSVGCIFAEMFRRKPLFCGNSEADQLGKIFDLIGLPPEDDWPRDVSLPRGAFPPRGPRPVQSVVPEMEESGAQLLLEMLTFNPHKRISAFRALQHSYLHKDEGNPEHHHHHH
CDK4/Cyclin D1 complex, sequence (P24385 whole entry, chain 2 of 2): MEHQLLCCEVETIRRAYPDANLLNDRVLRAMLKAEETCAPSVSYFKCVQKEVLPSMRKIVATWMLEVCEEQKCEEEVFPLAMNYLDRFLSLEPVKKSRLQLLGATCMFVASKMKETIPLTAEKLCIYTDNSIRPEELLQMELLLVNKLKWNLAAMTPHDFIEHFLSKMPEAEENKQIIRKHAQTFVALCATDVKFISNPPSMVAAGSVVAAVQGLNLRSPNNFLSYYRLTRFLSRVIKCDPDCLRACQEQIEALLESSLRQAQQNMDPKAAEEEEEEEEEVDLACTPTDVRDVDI

Binder	% Inhibition, cyclin D1/CDK4 kinase	IC50, cyclin D1/CDK4 kinase, GST-pRb
FYHSKRR-NH2 [FYHSKRR-NH2]	20%	–
FYHSKRRLI-NH2 [FYHSKRRLI-NH2]	20%	–
H-KRRLIF-NH2 [H-Lys-Arg-Arg-Leu-Ile-Phe-NH2]	72%	> 200 µM
FYHSKR-NH2 [FYHSKR-NH2]	10%	–
FYHSKRRL-NH2 [FYHSKRRL-NH2]	20%	–

More lines, now with the values ahead:

% Inhibition, cyclin D1/CDK4 kinase	IC50, cyclin D1/CDK4 kinase, GST-pRb	Binder
70%	–	YHSKRRLIF-NH2 [p21 (151-159) YHSKRRLIF-NH2]
30%	–	TSMTDFYHSKRR-NH2 [TSMTDFYHSKRR-NH2]
10%	–	HSKRRLI-NH2 [HSKRRLI-NH2]
10%	–	YHSKRR-NH2 [YHSKRR-NH2]
10%	–	YHSKRRL-NH2 [YHSKRRL-NH2]
72%	–	TDFYHSKRRLIF-NH2 [p21 (148-159) TDFYHSKRRLIF-NH2]
72%	54 µM	SKRRLIF-NH2 [SKRRLIF-NH2]
15%	–	YHSKRRLI-NH2 [YHSKRRLI-NH2]
70%	–	FYHSKRRLIF-NH2 [p21 (150-159) FYHSKRRLIF-NH2]
10%	–	YHSKR-NH2 [YHSKR-NH2]
